In US20230257470A1 (published 2023):
Values belong to the binder of their own block, whether it stands above or below them.

Legend:
human FcγRIIIa(F) [1] = biological target: T1, human FcγRIIIa(F) (human, UniProt P08637 17-208, limits assumed); assay: SPR (Biacore), antibody captured on chip, FcgR injected, HBS-EP+, 25 C; bound amount corrected by captured amount; reference itself
T1 construct: also called hFcgRIIIa(F); allotype F158
T1 sequence (P08637 other isoform, or with tags, fused parts or gaps limits assumed): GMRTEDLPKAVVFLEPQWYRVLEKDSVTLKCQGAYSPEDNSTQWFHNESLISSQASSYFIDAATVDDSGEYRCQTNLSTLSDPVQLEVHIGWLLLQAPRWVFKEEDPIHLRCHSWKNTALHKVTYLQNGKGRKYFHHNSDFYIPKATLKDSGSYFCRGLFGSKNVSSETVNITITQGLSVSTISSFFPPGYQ

human FcγRIIa(R) [2] = biological target: T2, human FcγRIIa(R) (human, UniProt P12318 36-217); assay: as above
T2 construct: also called hFcgRIIa(R); FcγRIIa type R
T2 chain: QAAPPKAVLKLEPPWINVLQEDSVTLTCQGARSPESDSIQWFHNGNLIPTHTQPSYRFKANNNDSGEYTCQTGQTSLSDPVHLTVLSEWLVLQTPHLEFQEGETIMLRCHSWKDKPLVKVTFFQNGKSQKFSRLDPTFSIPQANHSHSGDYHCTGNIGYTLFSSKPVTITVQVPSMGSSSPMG

human FcγRIa [3] = biological target: T3, human FcγRIa (human, UniProt P12314 16-292, limits assumed); assay: as above
T3 construct: also called hFcgRIa

human FcγRIIb [4] = biological target: T4, human FcγRIIb (human, UniProt P31994 43-217, limits assumed); assay: as above
T4 construct: also called hFcgRIIb
T4 sequence: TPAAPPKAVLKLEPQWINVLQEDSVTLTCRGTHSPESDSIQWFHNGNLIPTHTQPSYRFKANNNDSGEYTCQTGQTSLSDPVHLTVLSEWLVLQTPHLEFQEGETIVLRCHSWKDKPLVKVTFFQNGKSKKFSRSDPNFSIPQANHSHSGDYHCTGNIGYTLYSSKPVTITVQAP

human FcγRIIa(H) [5] = biological target: T5, human FcγRIIa(H) (human, UniProt P12318 36-217); assay: as above
T5 construct: also called hFcgRIIa(H); FcγRIIa type H
T5 sequence: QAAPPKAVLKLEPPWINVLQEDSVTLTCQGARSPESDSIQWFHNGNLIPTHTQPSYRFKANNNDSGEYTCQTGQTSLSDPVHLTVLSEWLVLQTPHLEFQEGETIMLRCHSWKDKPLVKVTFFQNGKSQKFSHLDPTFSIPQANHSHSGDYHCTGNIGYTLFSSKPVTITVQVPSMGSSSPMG

human FcγRIIIa(F) [6] = biological target: T1, human FcγRIIIa(F); assay: SPR (Biacore), antibody captured on chip, FcgR injected, HBS-EP+, 25 C; bound amount corrected by captured amount; reference GpH7-G1d/GpL16-k0
Description: (§1) Interaction between each modified antibody and Fcγ receptor prepared in the manner described above was analyzed using the BIACORE™ T100 surface plasmon resonance system (GE Healthcare), BIACORE™ T200 surface plasmon resonance system (GE Healthcare), BIACORE™ A100 surface plasmon resonance system or BIACORE™ 4000 surface plasmon resonance system. HBS-EP+(GE Healthcare) was used for the running buffer, and measurements were carried out at 25° C. The chips used were chips in which antigen peptides, Protein A (Thermo Scientific), Protein A/G (Thermo Scientific) or Protein L (ACTIGEN® protein (Alltech or BioVision) were immobilized on the Series S Sensor Chip CM5 (GE Healthcare) or Series S Sensor Chip CM4 (GE Healthcare) by amine coupling, or chips in which preliminarily biotinylated antigen peptides were allowed to interact and then immobilized on the Series S Sensor Chip SA (certified) (GE Healthcare). The target antibodies were captured on these sensor chips, Fcγ receptor diluted with the running buffer was allowed to interact, followed by measurement of the amount of bound antibody. The amounts bound were compared between antibodies. However, since the amount of Fcγ receptor bound depends on the amount of captured antibody, the values used for comparison were first corrected by dividing the amount of Fcγ receptor bound by the captured amount of each antibody. Through reaction with 10 mM glycine-HCl at pH 1.5, the sensor chips were regenerated by washing off antibody captured on the sensor chips and used repeatedly.

human FcγRIIa(R) [7] = biological target: T2, human FcγRIIa(R); assay: as above
Description: as §1

human FcγRIa [8] = biological target: T3, human FcγRIa; assay: as above
Description: as §1

human FcγRIIb [9] = biological target: T4, human FcγRIIb; assay: as above
Description: as §1

human FcγRIIa(H) [10] = biological target: T5, human FcγRIIa(H); assay: as above
Description: as §1

human FcγRIIIa(F) [11] = biological target: T6, human FcγRIIIa(F) (human, UniProt P08637 17-208, limits assumed); assay: SPR, captured antibody, FcγR analyte; bound amount per captured antibody
T6 construct: also called FcgRIIIaF; FcγRIIIa allotype F158
T6 sequence (P08637 other isoform, or with tags, fused parts or gaps limits assumed): as the sequence (P08637 other isoform, or with tags, fused parts or gaps limits assumed) above
Description: as §1
(§2) Binding strength was evaluated according to the following method based on the results of analyzing the interaction with each FcγR. […] That value was then further multiplied by 100, and the resulting value was used as an indicator of relative binding activity to each FcγR.

human FcγRIIb [12] = biological target: T7, human FcγRIIb (human, UniProt P31994 43-217, limits assumed); assay: SPR, captured antibody, FcγR as analyte
T7 construct: Soluble analyte in SPR; also called FcgRIIb; FcγIIB
T7 sequence: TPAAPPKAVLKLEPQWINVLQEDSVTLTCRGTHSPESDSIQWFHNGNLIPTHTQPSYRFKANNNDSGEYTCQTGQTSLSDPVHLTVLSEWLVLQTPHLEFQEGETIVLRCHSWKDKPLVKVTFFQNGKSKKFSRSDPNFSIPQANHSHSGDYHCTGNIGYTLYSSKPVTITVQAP
Description: as §1, §2

human FcγRIIa(H) [13] = biological target: T8, human FcγRIIa(H) (human, UniProt P12318 36-217); assay: SPR, captured antibody, FcγR as analyte
T8 construct: Soluble analyte in SPR; also called FcgRIIaH; FcγRIIa type H
T8 sequence: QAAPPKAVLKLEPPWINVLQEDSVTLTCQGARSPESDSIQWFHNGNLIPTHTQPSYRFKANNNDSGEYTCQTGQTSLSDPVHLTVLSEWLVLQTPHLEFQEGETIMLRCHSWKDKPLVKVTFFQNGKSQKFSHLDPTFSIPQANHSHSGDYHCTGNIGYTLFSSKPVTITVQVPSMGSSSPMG
Description: as §1, §2

T3 sequence (P12314 16-292 limits assumed): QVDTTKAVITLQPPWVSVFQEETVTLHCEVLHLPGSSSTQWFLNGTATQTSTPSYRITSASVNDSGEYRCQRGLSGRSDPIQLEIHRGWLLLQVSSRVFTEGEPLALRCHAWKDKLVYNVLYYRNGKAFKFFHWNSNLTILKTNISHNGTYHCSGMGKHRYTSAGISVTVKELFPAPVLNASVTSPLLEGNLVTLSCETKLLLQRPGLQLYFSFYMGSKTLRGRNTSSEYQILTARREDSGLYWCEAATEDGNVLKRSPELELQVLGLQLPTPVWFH

B3: GpH7-B3 G236R/GpL16-k0 (antibody, human IgG1)
heavy: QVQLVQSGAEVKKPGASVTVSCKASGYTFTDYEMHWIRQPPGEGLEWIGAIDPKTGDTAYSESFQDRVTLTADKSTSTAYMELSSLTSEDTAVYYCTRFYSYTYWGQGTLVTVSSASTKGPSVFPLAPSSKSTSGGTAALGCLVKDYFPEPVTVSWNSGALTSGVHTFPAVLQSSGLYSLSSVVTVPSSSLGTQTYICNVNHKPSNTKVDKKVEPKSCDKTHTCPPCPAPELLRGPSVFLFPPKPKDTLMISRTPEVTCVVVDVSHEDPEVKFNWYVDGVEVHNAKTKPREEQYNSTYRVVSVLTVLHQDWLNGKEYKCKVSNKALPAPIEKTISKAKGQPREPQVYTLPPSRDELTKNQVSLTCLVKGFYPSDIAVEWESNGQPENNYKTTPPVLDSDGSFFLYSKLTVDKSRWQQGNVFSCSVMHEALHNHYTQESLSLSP
light: DIVMTQSPLSLPVTPGEPASISCQASESLVHSNRNTYLHWYLQKPGQSPQLLIYKVSNRFSGVPDRFSGSGSGTDFTLKISRVEAEDVGVYYCSQNTHVPPTFGQGTKVEIE
notes: anti-glypican-3 IgG1; B3 constant region (G1d with K439E); also called B3 variant; copies: 2 + 2
relative binding activity (human FcγRIIIa(F) [11]): 1 % of GpH7-B3/GpL16-k0

B4: GpH7-B3 variant P238K/GpL16-k0 (antibody, human IgG1)
heavy: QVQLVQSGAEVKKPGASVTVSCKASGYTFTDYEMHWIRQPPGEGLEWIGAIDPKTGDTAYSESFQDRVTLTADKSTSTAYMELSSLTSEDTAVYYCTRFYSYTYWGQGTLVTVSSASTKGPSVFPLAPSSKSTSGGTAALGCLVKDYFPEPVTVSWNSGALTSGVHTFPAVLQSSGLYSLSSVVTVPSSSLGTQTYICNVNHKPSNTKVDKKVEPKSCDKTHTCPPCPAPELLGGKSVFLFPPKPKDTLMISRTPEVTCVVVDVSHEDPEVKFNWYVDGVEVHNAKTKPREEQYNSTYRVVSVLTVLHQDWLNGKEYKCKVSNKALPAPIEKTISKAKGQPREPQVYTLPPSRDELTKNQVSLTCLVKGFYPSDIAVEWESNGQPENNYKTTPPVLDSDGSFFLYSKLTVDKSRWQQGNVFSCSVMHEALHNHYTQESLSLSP
light: DIVMTQSPLSLPVTPGEPASISCQASESLVHSNRNTYLHWYLQKPGQSPQLLIYKVSNRFSGVPDRFSGSGSGTDFTLKISRVEAEDVGVYYCSQNTHVPPTFGQGTKVEIE
notes: copies: 2 + 2
relative binding activity (human FcγRIIb [12]): 2 % of GpH7-B3/GpL16-k0 | relative binding activity (human FcγRIIa(H) [13]): 1 % of GpH7-B3/GpL16-k0

Other lines, results leading:

relative binding activity (amount bound / amount bound by GpH7-G1d/GpL16-k0 x 100) (human FcγRIIIa(F) [1]): 100 | relative binding activity (amount bound / amount bound by GpH7-G1d/GpL16-k0 x 100) (human FcγRIIa(R) [2]): 100 | relative binding activity (amount bound / amount bound by GpH7-G1d/GpL16-k0 x 100) (human FcγRIa [3]): 100 | relative binding activity (amount bound / amount bound by GpH7-G1d/GpL16-k0 x 100) (human FcγRIIb [4]): 100 | relative binding activity (amount bound / amount bound by GpH7-G1d/GpL16-k0 x 100) (human FcγRIIa(H) [5]): 100
B1: GpH7-G1d/GpL16-k0 (antibody)
chain 1: not shown
chain 2: DIVMTQSPLSLPVTPGEPASISCQASESLVHSNRNTYLHWYLQKPGQSPQLLIYKVSNRFSGVPDRFSGSGSGTDFTLKISRVEAEDVGVYYCSQNTHVPPTFGQGTKVEIERTVAAPSVFIFPPSDEQLKSGTASVVCLLNNFYPREAKVQWKVDNALQSGNSQESVTEQDSKDSTYSLSSTLTLSKADYEKHKVYACEVTHQGLSSPVTKSFNRGEC

relative binding activity (amount bound / amount bound by GpH7-G1d/GpL16-k0 x 100) (human FcγRIIIa(F) [6]): 88 | relative binding activity (amount bound / amount bound by GpH7-G1d/GpL16-k0 x 100) (human FcγRIIa(R) [7]): 94 | relative binding activity (amount bound / amount bound by GpH7-G1d/GpL16-k0 x 100) (human FcγRIa [8]): 109 | relative binding activity (amount bound / amount bound by GpH7-G1d/GpL16-k0 x 100) (human FcγRIIb [9]): 88 | relative binding activity (amount bound / amount bound by GpH7-G1d/GpL16-k0 x 100) (human FcγRIIa(H) [10]): 92
B2: GpH7-B3/GpL16-k0 (antibody, human IgG1)
heavy: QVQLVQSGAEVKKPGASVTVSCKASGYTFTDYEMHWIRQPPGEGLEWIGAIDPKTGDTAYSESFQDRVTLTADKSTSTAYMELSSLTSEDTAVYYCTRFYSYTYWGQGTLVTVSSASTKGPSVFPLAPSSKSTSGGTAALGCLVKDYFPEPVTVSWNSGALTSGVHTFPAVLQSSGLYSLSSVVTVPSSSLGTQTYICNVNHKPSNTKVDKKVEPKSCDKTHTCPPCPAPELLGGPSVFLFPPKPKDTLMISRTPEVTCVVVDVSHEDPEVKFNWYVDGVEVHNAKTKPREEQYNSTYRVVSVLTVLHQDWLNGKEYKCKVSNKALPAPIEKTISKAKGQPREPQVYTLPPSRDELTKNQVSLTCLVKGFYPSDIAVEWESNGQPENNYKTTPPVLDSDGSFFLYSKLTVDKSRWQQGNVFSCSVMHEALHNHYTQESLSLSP
light: DIVMTQSPLSLPVTPGEPASISCQASESLVHSNRNTYLHWYLQKPGQSPQLLIYKVSNRFSGVPDRFSGSGSGTDFTLKISRVEAEDVGVYYCSQNTHVPPTFGQGTKVEIE
notes: also called anti-glypican-3 antibody with B3 constant region (G1d with K439E)
